Data: FireProtDB (doi:10.1002/cbic.201402128)
Where “and” joins values, the source holds several entries; their conditions need not be identical. Equal entries are not always repeated.

B1: Haloalkane dehalogenase, D4Z2G1 (parent)
chain: MSLGAKPFGEKKFIEIKGRRMAYIDEGTGDPILFQHGNPTSSYLWRNIMPHCAGLGRLIACDLIGMGDSDKLDPSGPERYAYAEHRDYLDALWEALDLGDRVVLVVHDWGSALGFDWARRHRERVQGIAYMEAIAMPIEWADFPEQDRDLFQAFRSQAGEELVLQDNVFVEQVLPGLILRPLSEAEMAAYREPFLAAGEARRPTLSWPRQIPIAGTPADVVAIARDYAGWLSESPIPKLFINAEPGALTTGRMRDFCRTWPNQTEITVAGAHFIQEDSPDEIGAAIAAFVRRLRPA

Variants of: B1
Conditions: Sphingobium indicum (strain DSM 16413 / CCM 7287 / MTCC 6362 / UT26 / NBRC 101211 / UT26S); pH 7.5; Thermal; fluorescence; Na-Hepes 50 mM; reversible: no; structure 1MJ5; whole UniProt chain shown

| Variant | Tm | change of melting temperature, mutant - wild type (higher = more stable) |
| --- | --- | --- |
| MSLGAKPFGEKKFIEIKGRCMAYIDEGTGDPILFQHGNPTSSYLWRNIMPHCAGLGRLIACDLIGMGDSCKLDPSGPERYAYAEHRDYLDALWEALDLGDRVVLVVHDWGSALGFDWARRHRERVQGIAYMEAIAMPIEWADFPEQDRDLFQAFRSQAGEELVLQDNVFVEQVLPGLILRPLSEAEMAAYREPFLAAGEARRPTLSWPRQIPIAGTPADVVAIARDYAGWLSESPIPKLFINAEPGALTTGRMRDFCRTWPNQTEITVAGAHFIQEDSPDEIGAAIAAFVRRLRPA [R20C D70C] | 45.5 °C | -3.5 °C |
| MSLGAEPFGEKKFIEIKGRRMAYIDEGTGDPILFQHGNPTSSYLWRNIMPHCAGLGRLIACDLIGMGDSDKLDPSGPERYAYAEHRDYLDALWEALDLGDRVVLVVHDWGSALGFDWARRHRERVQGIAYMEAIAMPIEWADFPEQDRDLFQAFRSQAGEELVLQDNVFVEQVLPGLILRPLSEAEMAAYREPFLAAGEARRPTLSWPRQIPIAGTPADVVAIARDYAGWLSESPIPKLFINAEPGALTTGRMRDFCRTWPNQTEITVAGAHFIQEDSPDEIGAAIAAFVRRLRPA [K6E] | 51 °C | 0 °C |
| MSLGAKPFGEKKFIEIKGRRMAYIDEGTGDPILFIHGNPTSSYLWRNIMPHCAGLGRLIACDLIGMGDSDKLDPSGPERYAYAEHRDYLDALWEALDLGDRVVLVVHDWGSALGFDWARRHRERVQGIAYMEAIAMPIEWADFPEQDRDLFQAFRSQAGEELVLQDNVFVEQVLPGLILRPLSEAEMAAYREPFLAAGEARRPTLSWPRQIPIAGTPADVVAIARDYAGWLSESPIPKLFINAEPGALTTGRMRDFCRTWPNQTEITVAGAHFIQEDSPDEIGAAIAAFVRRLRPA [Q35I] | 50.5 °C | -0.5 °C |
| MSLGAKPFGEKKFIEIKGRRMAYIDEGTGDPILFLHGNPTSSYLWRNIMPHCAGLGRLIACDLIGMGDSDKLDPSGPERYAYAEHRDYLDALWEALDLGDRVVLVVHDWGSALGFDWARRHRERVQGIAYMEAIAMPIEWADFPEQDRDLFQAFRSQAGEELVLQDNVFVEQVLPGLILRPLSEAEMAAYREPFLAAGEARRPTLSWPRQIPIAGTPADVVAIARDYAGWLSESPIPKLFINAEPGALTTGRMRDFCRTWPNQTEITVAGAHFIQEDSPDEIGAAIAAFVRRLRPA [Q35L] | 48.5 °C | -2.5 °C |
| MSLGAKPFGEKKFIEIKGRRMAYIDEGTGDPILFVHGNPTSSYLWRNIMPHCAGLGRLIACDLIGMGDSDKLDPSGPERYAYAEHRDYLDALWEALDLGDRVVLVVHDWGSALGFDWARRHRERVQGIAYMEAIAMPIEWADFPEQDRDLFQAFRSQAGEELVLQDNVFVEQVLPGLILRPLSEAEMAAYREPFLAAGEARRPTLSWPRQIPIAGTPADVVAIARDYAGWLSESPIPKLFINAEPGALTTGRMRDFCRTWPNQTEITVAGAHFIQEDSPDEIGAAIAAFVRRLRPA [Q35V] | 48.5 °C | -2.5 °C |
| MCLGAKPFGEKKFIEIKGRRMAYIDEGTGDPILFQHGNPTSSYLWRCIMPHCAGLGRLIACDLIGMGDSDKLDPSGPERYAYAEHRDYLDALWEALDLGDRVVLVVHDWGSALGFDWARRHRERVQGIAYMEAIAMPIEWADFPEQDRDLFQAFRSQAGEELVLQDNVFVEQVLPGLILRPLSEAEMAAYREPFLAAGEARRPTLSWPRQIPIAGTPADVVAIARDYAGWLSESPIPKLFINAEPGALTTGRMRDFCRTWPNQTEITVAGAHFIQEDSPDEIGAAIAAFVRRLRPA [S2C N47C] | 48 °C | -3 °C |
| MSLGAKPFGEKKFIEIKGRRMAYIDEGTGHPILFQHGNPTSSYLWRNIMPHCAGLGRLIACDLIGMGDSDKLDPSGPERYAYAEHRDYLDALWEALDLGDRVVLVVHDWGSALGFDWARRHRERVQGIAYMEAIAMPIEWADFPEQDRDLFQAFRSQAGEELVLQDNVFVEQVLPGLILRPLSEAEMAAYREPFLAAGEARRPTLSWPRQIPIAGTPADVVAIARDYAGWLSESPIPKLFINAEPGALTTGRMRDFCRTWPNQTEITVAGAHFIQEDSPDEIGAAIAAFVRRLRPA [D30H] | 51 °C | 0 °C |
| MSLGAKPFGEKKFIEIKGRRMAYIDEGTGAPILFQHGNPTSSYLWRNIMPHCAGLGRLIACDLIGMGDSDKLDPSGPERYAYAEHRDYLDALWEALDLGDRVVLVVHDWGSALGFDWARRHRERVQGIAYMEAIAMPIEWADFPEQDRDLFQAFRSQAGEELVLQDNVFVEQVLPGLILRPLSEAEMAAYREPFLAAGEARRPTLSWPRQIPIAGTPADVVAIARDYAGWLSESPIPKLFINAEPGALTTGRMRDFCRTWPNQTEITVAGAHFIQEDSPDEIGAAIAAFVRRLRPA [D30A] | 51 °C | 0 °C |
| MSLGAKPFGEKKFIEIKGRRMAYIDEGTGVPILFQHGNPTSSYLWRNIMPHCAGLGRLIACDLIGMGDSDKLDPSGPERYAYAEHRDYLDALWEALDLGDRVVLVVHDWGSALGFDWARRHRERVQGIAYMEAIAMPIEWADFPEQDRDLFQAFRSQAGEELVLQDNVFVEQVLPGLILRPLSEAEMAAYREPFLAAGEARRPTLSWPRQIPIAGTPADVVAIARDYAGWLSESPIPKLFINAEPGALTTGRMRDFCRTWPNQTEITVAGAHFIQEDSPDEIGAAIAAFVRRLRPA [D30V] | 49 °C | -2 °C |
| MSLGAKPFGEKKFIEIKGRRMAYIDEGTGEPILFQHGNPTSSYLWRNIMPHCAGLGRLIACDLIGMGDSDKLDPSGPERYAYAEHRDYLDALWEALDLGDRVVLVVHDWGSALGFDWARRHRERVQGIAYMEAIAMPIEWADFPEQDRDLFQAFRSQAGEELVLQDNVFVEQVLPGLILRPLSEAEMAAYREPFLAAGEARRPTLSWPRQIPIAGTPADVVAIARDYAGWLSESPIPKLFINAEPGALTTGRMRDFCRTWPNQTEITVAGAHFIQEDSPDEIGAAIAAFVRRLRPA [D30E] | 51 °C | 0 °C |
| MSSGAKPFGEKKFIEIKGRRMAYIDEGTGDPILFQHGNPTSSYLWRNIMPHCAGLGRLIACDLIGMGDSDKLDPSGPERYAYAEHRDYLDALWEALDLGDRVVLVVHDWGSALGFDWARRHRERVQGIAYMEAIAMPIEWADFPEQDRDLFQAFRSQAGEELVLQDNVFVEQVLPGLILRPLSEAEMAAYREPFLAAGEARRPTLSWPRQIPIAGTPADVVAIARDYAGWLSESPIPKLFINAEPGALTTGRMRDFCRTWPNQTEITVAGAHFIQEDSPDEIGAAIAAFVRRLRPA [L3S] | 50.5 °C | -0.5 °C |
| MSLGAKPFGEKKFIEIKGRLMAYIDEGTGDPILFQHGNPTSSYLWRNIMPHCAGLGRLIACDLIGMGDSDKLDPSGPERYAYAEHRDYLDALWEALDLGDRVVLVVHDWGSALGFDWARRHRERVQGIAYMEAIAMPIEWADFPEQDRDLFQAFRSQAGEELVLQDNVFVEQVLPGLILRPLSEAEMAAYREPFLAAGEARRPTLSWPRQIPIAGTPADVVAIARDYAGWLSESPIPKLFINAEPGALTTGRMRDFCRTWPNQTEITVAGAHFIQEDSPDEIGAAIAAFVRRLRPA [R20L] | 50 °C | -1 °C |
| MSLGCKPFGEKKFIEIKGRRMAYIDEGTGDPILFQHGNPTSSYLWRNIMPHCAGLGRLIACDLIGMGDSDKLDPSGPERYAYAEHRDYLDALWEALDLGDRVVLVVHDWGSALGFDWARRHRERVQGIAYMEAIAMPIEWADFPEQDRDLFQAFRSQAGEELVLQDNVFVEQVLPGLILRPLSECEMAAYREPFLAAGEARRPTLSWPRQIPIAGTPADVVAIARDYAGWLSESPIPKLFINAEPGALTTGRMRDFCRTWPNQTEITVAGAHFIQEDSPDEIGAAIAAFVRRLRPA [A5C A185C] | 56 °C and 55.5 °C | 5 °C and 6.5 °C |
| MSLGAKPFGEKKFIEIKGRRMAYIDHGTGDPILFQHGNPTSSYLWRNIMPHCAGLGRLIACDLIGMGDSDKLDPSGPERYAYAEHRDYLDALWEALDLGDRVVLVVHDWGSALGFDWARRHRERVQGIAYMEAIAMPIEWADFPEQDRDLFQAFRSQAGEELVLQDNVFVEQVLPGLILRPLSEAEMAAYREPFLAAGEARRPTLSWPRQIPIAGTPADVVAIARDYAGWLSESPIPKLFINAEPGALTTGRMRDFCRTWPNQTEITVAGAHFIQEDSPDEIGAAIAAFVRRLRPA [E26H] | 50 °C | -1 °C |
| MSLGAKPFGEKKFIEIKGRRMAYIDQGTGDPILFQHGNPTSSYLWRNIMPHCAGLGRLIACDLIGMGDSDKLDPSGPERYAYAEHRDYLDALWEALDLGDRVVLVVHDWGSALGFDWARRHRERVQGIAYMEAIAMPIEWADFPEQDRDLFQAFRSQAGEELVLQDNVFVEQVLPGLILRPLSEAEMAAYREPFLAAGEARRPTLSWPRQIPIAGTPADVVAIARDYAGWLSESPIPKLFINAEPGALTTGRMRDFCRTWPNQTEITVAGAHFIQEDSPDEIGAAIAAFVRRLRPA [E26Q] | 51 °C | 0 °C |
| MSLGAKPFGEKKFIEIKGRRMAYIDRGTGDPILFQHGNPTSSYLWRNIMPHCAGLGRLIACDLIGMGDSDKLDPSGPERYAYAEHRDYLDALWEALDLGDRVVLVVHDWGSALGFDWARRHRERVQGIAYMEAIAMPIEWADFPEQDRDLFQAFRSQAGEELVLQDNVFVEQVLPGLILRPLSEAEMAAYREPFLAAGEARRPTLSWPRQIPIAGTPADVVAIARDYAGWLSESPIPKLFINAEPGALTTGRMRDFCRTWPNQTEITVAGAHFIQEDSPDEIGAAIAAFVRRLRPA [E26R] | 50 °C | -1 °C |
| MSLGAKPFGEKKFIEIKGRRMAYIDVGTGDPILFQHGNPTSSYLWRNIMPHCAGLGRLIACDLIGMGDSDKLDPSGPERYAYAEHRDYLDALWEALDLGDRVVLVVHDWGSALGFDWARRHRERVQGIAYMEAIAMPIEWADFPEQDRDLFQAFRSQAGEELVLQDNVFVEQVLPGLILRPLSEAEMAAYREPFLAAGEARRPTLSWPRQIPIAGTPADVVAIARDYAGWLSESPIPKLFINAEPGALTTGRMRDFCRTWPNQTEITVAGAHFIQEDSPDEIGAAIAAFVRRLRPA [E26V] | 51 °C | 0 °C |
| MSLGEKPFGEKKFIEIKGRRMAYIDEGTGDPILFQHGNPTSSYLWRNIMPHCAGLGRLIACDLIGMGDSDKLDPSGPERYAYAEHRDYLDALWEALDLGDRVVLVVHDWGSALGFDWARRHRERVQGIAYMEAIAMPIEWADFPEQDRDLFQAFRSQAGEELVLQDNVFVEQVLPGLILRPLSEAEMAAYREPFLAAGEARRPTLSWPRQIPIAGTPADVVAIARDYAGWLSESPIPKLFINAEPGALTTGRMRDFCRTWPNQTEITVAGAHFIQEDSPDEIGAAIAAFVRRLRPA [A5E] | 51.5 °C | 0.5 °C |
| MSLGLKPFGEKKFIEIKGRRMAYIDEGTGDPILFQHGNPTSSYLWRNIMPHCAGLGRLIACDLIGMGDSDKLDPSGPERYAYAEHRDYLDALWEALDLGDRVVLVVHDWGSALGFDWARRHRERVQGIAYMEAIAMPIEWADFPEQDRDLFQAFRSQAGEELVLQDNVFVEQVLPGLILRPLSEAEMAAYREPFLAAGEARRPTLSWPRQIPIAGTPADVVAIARDYAGWLSESPIPKLFINAEPGALTTGRMRDFCRTWPNQTEITVAGAHFIQEDSPDEIGAAIAAFVRRLRPA [A5L] | 50 °C | -1 °C |
| MSLGAKPFGEKKFITIKGRRMAYIDEGTGDPILFQHGNPTSSYLWRNIMPHCAGLGRLIACDLIGMGDSDKLDPSGPERYAYAEHRDYLDALWEALDLGDRVVLVVHDWGSALGFDWARRHRERVQGIAYMEAIAMPIEWADFPEQDRDLFQAFRSQAGEELVLQDNVFVEQVLPGLILRPLSEAEMAAYREPFLAAGEARRPTLSWPRQIPIAGTPADVVAIARDYAGWLSESPIPKLFINAEPGALTTGRMRDFCRTWPNQTEITVAGAHFIQEDSPDEIGAAIAAFVRRLRPA [E15T] | 52 °C | 1 °C |
